Assay results: article PMC10250246 (Nucleic Acids Research, 2023)

Columns and labels:
[1] = target: T1, 10xHis-mRuby2-Spt6 (239-1451) (S. cerevisiae, UniProt P23615 239-1451); experiment: native gel or EMSA
T1 sequence (looked up): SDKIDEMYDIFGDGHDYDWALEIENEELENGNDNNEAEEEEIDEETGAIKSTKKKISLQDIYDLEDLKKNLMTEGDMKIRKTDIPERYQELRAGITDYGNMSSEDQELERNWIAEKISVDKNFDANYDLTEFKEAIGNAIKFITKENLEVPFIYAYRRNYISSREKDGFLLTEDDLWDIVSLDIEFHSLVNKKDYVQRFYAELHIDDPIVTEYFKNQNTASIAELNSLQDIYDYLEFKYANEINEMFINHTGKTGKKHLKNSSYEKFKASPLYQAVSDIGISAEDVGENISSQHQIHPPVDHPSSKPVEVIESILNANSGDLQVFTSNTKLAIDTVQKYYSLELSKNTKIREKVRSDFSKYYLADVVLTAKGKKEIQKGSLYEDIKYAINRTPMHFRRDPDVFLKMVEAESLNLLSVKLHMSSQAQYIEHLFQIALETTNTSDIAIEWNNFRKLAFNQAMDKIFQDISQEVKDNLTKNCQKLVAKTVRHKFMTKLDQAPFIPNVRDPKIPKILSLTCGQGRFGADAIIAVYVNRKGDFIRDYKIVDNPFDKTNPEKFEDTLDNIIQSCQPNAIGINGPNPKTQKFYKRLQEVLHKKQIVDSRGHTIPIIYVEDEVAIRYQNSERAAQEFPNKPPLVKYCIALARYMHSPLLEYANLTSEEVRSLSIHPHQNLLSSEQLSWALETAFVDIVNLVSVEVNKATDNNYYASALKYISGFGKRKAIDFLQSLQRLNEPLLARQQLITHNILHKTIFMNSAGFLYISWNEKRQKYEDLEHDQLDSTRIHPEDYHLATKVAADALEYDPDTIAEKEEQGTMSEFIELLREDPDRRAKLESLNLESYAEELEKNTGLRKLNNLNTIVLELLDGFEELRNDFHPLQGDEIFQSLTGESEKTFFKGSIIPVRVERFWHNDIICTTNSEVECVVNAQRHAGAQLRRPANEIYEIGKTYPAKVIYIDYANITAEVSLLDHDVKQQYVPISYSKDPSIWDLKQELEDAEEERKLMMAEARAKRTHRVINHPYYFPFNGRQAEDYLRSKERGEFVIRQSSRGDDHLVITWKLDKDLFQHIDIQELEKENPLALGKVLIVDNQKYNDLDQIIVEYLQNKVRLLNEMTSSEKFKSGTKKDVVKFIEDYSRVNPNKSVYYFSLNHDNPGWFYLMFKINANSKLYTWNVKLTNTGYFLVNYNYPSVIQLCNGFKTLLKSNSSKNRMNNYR

Spt6 (239-1451) = target: T2, Spt6 (239-1451) (S. cerevisiae, UniProt P23615 239-1451); experiment: fluorescence polarisation
T2 sequence (looked up): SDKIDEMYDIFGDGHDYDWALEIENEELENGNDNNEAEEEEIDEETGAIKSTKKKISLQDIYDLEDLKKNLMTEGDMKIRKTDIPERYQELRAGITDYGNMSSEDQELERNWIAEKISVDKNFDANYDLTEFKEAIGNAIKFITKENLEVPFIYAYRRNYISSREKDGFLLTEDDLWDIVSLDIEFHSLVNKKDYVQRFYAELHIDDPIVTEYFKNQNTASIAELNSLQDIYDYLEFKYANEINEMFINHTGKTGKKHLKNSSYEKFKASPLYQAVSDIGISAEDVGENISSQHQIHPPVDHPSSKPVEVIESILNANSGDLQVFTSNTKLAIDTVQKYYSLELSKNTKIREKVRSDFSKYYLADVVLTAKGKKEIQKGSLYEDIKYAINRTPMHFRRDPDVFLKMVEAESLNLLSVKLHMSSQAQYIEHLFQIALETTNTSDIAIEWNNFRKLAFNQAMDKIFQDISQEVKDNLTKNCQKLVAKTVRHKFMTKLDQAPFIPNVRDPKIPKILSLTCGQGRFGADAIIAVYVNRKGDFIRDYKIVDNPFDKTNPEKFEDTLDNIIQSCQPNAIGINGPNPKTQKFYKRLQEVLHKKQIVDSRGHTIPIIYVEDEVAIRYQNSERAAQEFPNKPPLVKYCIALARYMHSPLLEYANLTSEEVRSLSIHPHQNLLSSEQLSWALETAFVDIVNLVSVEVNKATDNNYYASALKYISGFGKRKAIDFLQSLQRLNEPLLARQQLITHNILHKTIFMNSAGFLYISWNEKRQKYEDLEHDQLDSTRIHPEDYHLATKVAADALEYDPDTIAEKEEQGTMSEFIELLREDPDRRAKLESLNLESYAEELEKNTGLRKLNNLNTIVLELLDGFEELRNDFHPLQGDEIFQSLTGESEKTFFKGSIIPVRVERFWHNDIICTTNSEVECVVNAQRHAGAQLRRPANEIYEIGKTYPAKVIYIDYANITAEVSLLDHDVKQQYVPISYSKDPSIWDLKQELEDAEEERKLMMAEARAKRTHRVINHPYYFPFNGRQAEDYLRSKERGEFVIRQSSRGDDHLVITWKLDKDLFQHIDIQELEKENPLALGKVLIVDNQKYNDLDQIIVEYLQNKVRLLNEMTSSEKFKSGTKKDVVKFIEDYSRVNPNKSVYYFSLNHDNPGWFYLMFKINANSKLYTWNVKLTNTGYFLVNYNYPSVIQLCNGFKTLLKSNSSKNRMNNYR

Kd [1] [µM] | Kd (Spt6 (239-1451)) [µM] | binding result [1] | Binder
~0.32 | 0.77 |  | 10xHis-mClover-Cdc73 (natural protein, S. cerevisiae, UniProt Q06697 1-393, looked up) MANSLDRLREHLKNGDKLVLKNNEGQSTDDITKATMVETLSSDGSTQDSFPLNEETEIEIDGSLVQLRIIVHCWMNKDSSAADYLADCQNKQLTNVSFLQRTDLINWLSGNTESSQYLKAPGQKGETSDKVDIENKTLAGELSTVKSTTSASLENDSEVSDPVVVETMKHERILVDHNSALRGAKPINFGYLIKDAELKLVQSIKGSLRGSKLPPGHKGAHGRISKTNGSSGGPRKDPIILIPSAASSILTVANIKQFLLESKYVNPRNLPSVPNGLVNIEKNFERISRPIRFIIVDNTRMFTKPEYWDRVVAIFTTGHTWQFNNYQWNSPQELFQRCKGYYFHFAGDSVPQHVQQWNVEKVELDKNKRFKDVEVVRYFWHSLEKELISRGYR
 |  | binds | 10xHis-mClover-Cdc73 W321A (natural protein, S. cerevisiae, UniProt Q06697 1-393, looked up) MANSLDRLREHLKNGDKLVLKNNEGQSTDDITKATMVETLSSDGSTQDSFPLNEETEIEIDGSLVQLRIIVHCWMNKDSSAADYLADCQNKQLTNVSFLQRTDLINWLSGNTESSQYLKAPGQKGETSDKVDIENKTLAGELSTVKSTTSASLENDSEVSDPVVVETMKHERILVDHNSALRGAKPINFGYLIKDAELKLVQSIKGSLRGSKLPPGHKGAHGRISKTNGSSGGPRKDPIILIPSAASSILTVANIKQFLLESKYVNPRNLPSVPNGLVNIEKNFERISRPIRFIIVDNTRMFTKPEYWDRVVAIFTTGHTAQFNNYQWNSPQELFQRCKGYYFHFAGDSVPQHVQQWNVEKVELDKNKRFKDVEVVRYFWHSLEKELISRGYR
